Reference: the supplement of paper PMC10065799, “High-throughput profiling of sequence recognition by tyrosine kinases and SH2 domains using bacterial peptide display” (eLife, 2023)

Tests used:
[1] = target: c-Src SH2; assay: SH2 binding enrichment of the phosphorylated peptide, bacterial display (enrichment ratio); higher = better substrate or ligand; peptides without Tyr show the background
[2] = target: Grb2 SH2 (UniProt P62993); assay: as above
[3] = target: SHP2-C SH2; assay: as above
[4] = target: Fyn (UniProt P06241); assay: phosphorylation enrichment, bacterial display (enrichment ratio); higher = better substrate or ligand; peptides without Tyr show the background
Fyn, sequence (P06241 whole entry, looked up): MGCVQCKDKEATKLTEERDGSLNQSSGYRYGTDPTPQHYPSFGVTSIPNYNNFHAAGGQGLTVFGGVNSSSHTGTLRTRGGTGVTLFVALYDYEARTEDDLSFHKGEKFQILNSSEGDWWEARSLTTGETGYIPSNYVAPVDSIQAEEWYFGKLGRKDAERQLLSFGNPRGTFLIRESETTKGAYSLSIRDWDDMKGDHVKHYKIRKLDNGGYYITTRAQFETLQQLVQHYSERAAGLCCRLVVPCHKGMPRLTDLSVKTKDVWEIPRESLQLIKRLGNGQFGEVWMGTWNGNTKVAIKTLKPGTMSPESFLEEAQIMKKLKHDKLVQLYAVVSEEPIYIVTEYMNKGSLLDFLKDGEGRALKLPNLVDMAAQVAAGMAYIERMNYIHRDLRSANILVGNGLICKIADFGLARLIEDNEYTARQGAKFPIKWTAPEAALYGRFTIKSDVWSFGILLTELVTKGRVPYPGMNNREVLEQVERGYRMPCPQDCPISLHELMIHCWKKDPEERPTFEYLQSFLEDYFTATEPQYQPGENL

[5] = target: MERTK (UniProt Q12866); assay: as above
MERTK, sequence (Q12866 whole entry, looked up): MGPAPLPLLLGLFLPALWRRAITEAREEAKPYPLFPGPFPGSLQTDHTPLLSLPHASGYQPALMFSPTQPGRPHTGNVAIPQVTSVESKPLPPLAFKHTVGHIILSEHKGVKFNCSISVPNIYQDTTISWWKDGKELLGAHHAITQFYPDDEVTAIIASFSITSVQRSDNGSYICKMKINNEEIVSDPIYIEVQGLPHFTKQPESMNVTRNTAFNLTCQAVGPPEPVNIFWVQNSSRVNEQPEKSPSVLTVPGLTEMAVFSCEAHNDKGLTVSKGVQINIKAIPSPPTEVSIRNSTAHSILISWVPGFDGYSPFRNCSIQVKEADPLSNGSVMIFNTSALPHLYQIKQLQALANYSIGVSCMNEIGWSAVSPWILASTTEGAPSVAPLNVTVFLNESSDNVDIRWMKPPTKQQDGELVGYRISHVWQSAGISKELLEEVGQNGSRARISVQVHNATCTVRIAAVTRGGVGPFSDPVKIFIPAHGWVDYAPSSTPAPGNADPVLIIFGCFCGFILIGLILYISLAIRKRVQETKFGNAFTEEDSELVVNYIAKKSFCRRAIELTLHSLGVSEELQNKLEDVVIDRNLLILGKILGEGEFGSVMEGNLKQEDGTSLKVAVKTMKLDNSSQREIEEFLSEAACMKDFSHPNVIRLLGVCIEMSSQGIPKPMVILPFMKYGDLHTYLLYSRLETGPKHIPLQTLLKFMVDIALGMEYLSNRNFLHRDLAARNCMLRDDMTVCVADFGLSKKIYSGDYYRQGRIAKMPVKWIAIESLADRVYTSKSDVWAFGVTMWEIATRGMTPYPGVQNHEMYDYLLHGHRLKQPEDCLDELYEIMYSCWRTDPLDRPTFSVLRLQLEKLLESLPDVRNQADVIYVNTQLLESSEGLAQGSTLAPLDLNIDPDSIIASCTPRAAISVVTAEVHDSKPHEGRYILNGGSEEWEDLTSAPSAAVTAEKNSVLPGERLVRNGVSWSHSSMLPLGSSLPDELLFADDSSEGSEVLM

[6] = target: EPHB2 (UniProt P29323); assay: as above
EPHB2, sequence (P29323 whole entry, looked up): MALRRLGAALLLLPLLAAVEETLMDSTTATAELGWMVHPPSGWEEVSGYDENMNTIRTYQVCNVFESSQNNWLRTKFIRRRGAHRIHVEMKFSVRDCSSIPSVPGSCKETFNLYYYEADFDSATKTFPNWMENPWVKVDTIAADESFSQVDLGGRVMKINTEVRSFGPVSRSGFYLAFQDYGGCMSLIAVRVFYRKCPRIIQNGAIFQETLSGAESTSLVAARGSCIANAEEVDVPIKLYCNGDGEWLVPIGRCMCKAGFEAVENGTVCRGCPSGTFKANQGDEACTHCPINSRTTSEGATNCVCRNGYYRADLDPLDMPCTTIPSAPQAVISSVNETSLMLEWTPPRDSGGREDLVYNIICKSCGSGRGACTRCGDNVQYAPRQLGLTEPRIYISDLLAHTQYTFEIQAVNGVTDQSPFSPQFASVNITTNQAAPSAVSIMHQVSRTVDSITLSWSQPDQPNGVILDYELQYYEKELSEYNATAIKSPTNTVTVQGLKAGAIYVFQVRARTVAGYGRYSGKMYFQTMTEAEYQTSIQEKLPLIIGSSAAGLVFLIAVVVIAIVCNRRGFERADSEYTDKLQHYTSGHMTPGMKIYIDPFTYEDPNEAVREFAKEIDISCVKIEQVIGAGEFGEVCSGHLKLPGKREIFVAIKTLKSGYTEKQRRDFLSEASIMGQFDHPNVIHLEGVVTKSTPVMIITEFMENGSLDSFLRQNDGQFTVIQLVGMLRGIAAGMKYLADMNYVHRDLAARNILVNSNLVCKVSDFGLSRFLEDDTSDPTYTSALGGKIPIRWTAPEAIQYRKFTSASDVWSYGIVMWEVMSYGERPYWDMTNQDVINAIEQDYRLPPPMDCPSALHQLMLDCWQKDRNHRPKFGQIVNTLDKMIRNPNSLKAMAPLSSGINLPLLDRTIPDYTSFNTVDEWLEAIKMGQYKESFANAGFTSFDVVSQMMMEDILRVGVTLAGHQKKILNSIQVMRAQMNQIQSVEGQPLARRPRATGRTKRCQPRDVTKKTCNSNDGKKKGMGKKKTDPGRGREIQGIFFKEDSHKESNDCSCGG

[7] = system: c-Src; assay: as above
[8] = system: c-Abl (mouse); assay: as above
[9] = target: Fes (UniProt P07332); assay: as above
Fes, sequence (P07332 whole entry, looked up): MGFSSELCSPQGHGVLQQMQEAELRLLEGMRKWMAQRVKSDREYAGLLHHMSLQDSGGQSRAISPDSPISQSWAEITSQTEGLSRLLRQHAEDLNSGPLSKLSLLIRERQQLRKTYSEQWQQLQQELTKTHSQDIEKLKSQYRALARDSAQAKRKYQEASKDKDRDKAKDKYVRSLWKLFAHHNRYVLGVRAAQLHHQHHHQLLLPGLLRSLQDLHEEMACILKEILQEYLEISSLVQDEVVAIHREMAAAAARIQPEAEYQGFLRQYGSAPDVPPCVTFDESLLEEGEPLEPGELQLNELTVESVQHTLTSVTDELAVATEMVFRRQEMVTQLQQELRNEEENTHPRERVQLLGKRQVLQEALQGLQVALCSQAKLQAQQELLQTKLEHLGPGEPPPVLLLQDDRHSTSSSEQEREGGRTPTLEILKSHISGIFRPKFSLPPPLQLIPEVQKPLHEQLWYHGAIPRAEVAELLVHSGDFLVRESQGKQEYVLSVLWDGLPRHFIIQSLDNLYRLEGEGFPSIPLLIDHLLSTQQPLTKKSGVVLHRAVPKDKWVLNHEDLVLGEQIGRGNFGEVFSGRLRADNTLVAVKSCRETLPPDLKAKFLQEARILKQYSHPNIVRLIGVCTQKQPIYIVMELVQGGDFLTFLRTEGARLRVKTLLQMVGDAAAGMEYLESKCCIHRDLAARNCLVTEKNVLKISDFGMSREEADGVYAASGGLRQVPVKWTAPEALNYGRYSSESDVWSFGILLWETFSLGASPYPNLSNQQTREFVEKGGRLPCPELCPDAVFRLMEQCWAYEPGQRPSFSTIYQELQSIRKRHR

[10] = system: Fer (mouse); assay: as above
[11] = system: AncSZ; assay: as above
[12] = target: EPHB1 (UniProt P54762); assay: as above
EPHB1, sequence (P54762 whole entry, looked up): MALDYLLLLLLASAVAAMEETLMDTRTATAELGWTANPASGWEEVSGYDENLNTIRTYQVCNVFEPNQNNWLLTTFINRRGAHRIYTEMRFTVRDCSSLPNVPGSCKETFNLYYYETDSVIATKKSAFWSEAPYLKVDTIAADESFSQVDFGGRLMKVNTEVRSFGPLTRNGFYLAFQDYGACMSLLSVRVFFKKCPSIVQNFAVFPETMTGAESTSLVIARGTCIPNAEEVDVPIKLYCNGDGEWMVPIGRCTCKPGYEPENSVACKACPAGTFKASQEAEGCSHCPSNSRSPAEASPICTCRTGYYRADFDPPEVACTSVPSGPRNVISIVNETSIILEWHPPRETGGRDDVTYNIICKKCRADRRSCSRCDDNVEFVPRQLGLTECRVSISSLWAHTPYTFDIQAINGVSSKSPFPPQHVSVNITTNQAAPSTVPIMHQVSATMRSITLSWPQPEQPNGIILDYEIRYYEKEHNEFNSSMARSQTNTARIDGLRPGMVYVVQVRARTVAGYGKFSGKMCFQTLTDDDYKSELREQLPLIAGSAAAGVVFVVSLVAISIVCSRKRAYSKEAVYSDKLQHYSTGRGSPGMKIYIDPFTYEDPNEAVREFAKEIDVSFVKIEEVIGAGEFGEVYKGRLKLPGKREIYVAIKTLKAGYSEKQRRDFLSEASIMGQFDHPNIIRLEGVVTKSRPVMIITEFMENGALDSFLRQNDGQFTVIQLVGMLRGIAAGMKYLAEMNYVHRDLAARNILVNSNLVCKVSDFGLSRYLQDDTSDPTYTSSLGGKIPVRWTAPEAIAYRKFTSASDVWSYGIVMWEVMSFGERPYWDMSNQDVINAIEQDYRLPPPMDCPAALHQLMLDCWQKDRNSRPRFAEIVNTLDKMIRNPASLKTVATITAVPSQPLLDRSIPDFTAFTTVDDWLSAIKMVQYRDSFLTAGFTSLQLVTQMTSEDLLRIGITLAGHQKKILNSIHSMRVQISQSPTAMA

[13] = target: FGFR3 (UniProt P22607); assay: as above
[14] = target: Jak2 (UniProt O60674); assay: as above
[15] = target: FGFR1 (UniProt P11362); assay: as above
[16] = target: Hck (UniProt P08631); assay: as above
Hck, sequence (P08631 whole entry, looked up, the tested form may be a part): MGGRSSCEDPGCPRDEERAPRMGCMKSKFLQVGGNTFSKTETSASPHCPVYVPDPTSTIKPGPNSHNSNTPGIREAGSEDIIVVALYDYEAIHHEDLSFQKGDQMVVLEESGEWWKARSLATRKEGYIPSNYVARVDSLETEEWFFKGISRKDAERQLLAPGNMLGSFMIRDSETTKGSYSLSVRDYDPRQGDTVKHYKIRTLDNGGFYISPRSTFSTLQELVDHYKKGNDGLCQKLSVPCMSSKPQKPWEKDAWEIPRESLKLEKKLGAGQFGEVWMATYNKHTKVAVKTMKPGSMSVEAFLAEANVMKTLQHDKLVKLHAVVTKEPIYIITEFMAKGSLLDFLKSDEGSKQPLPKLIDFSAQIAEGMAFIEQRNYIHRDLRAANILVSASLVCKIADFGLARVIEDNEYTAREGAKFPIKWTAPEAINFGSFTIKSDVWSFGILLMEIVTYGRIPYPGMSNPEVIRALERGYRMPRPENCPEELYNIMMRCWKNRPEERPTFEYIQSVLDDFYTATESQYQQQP
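Throughout, for SH2 binding enrichment of the phosphorylated peptide, bacterial display: peptide library displayed on the E. coli surface as eCPX fusions, selected cells deep-sequenced, score is each peptide's frequency after selection divided by its frequency in the input.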
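Throughout, for phosphorylation enrichment, bacterial display: 11-residue human phosphosite peptides and single-mutation variants displayed on the E. coli surface, counted by deep sequencing, each peptide's frequency after selection divided by its frequency in the unselected input library; frequency after pTyr selection over input frequency; kinase dosed for 20-30% of maximal phosphorylation in three min.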

Sequence | SH2 binding enrichment [1] | SH2 binding enrichment [2] | SH2 binding enrichment [3] | phosphorylation enrichment [4] | phosphorylation enrichment [5] | phosphorylation enrichment [6] | phosphorylation enrichment [7] | phosphorylation enrichment [8] | phosphorylation enrichment [9] | phosphorylation enrichment [10] | phosphorylation enrichment [11] | phosphorylation enrichment [12] | phosphorylation enrichment [13] | phosphorylation enrichment [14] | phosphorylation enrichment [15] | phosphorylation enrichment [16]
NAPNSYGRRPT [CDKN2A_Y44_I49T] | 0.567 | 0.599 | 0.615 | 0.402 | 0.593 | 0.281 | 0.528 | 0.79 | 0.717 | 0.38 | 0.784 | 0.452 | 0.499 | 1.11 | 0.343 | 0.424
IEPVIDVVQRR [ANOS1_Y217_Y217D] | 0.608 | 0.848 | 0.517 | 0.39 | 0.36 | 0.566 | 0.258 | 0.624 | 0.98 | 0.354 | 1.02 | 0.379 | 0.592 | 0.638 | 0.393 | 0.459
SNKLTYGTVVF [ACOX1_Y275_M278V] | 0.597 | 0.92 | 4.29 | 8 | 0.416 | 0.725 | 5.78 | 0.613 | 0.845 | 1.01 | 0.777 | 0.524 | 0.617 | 0.685 | 0.466 | 3.09

The next lines start with results.

SH2 binding enrichment [1] | SH2 binding enrichment [2] | SH2 binding enrichment [3] | Sequence | phosphorylation enrichment [4] | phosphorylation enrichment [5] | phosphorylation enrichment [6] | phosphorylation enrichment [7] | phosphorylation enrichment [8] | phosphorylation enrichment [9] | phosphorylation enrichment [10] | phosphorylation enrichment [11] | phosphorylation enrichment [12] | phosphorylation enrichment [13] | phosphorylation enrichment [14] | phosphorylation enrichment [15] | phosphorylation enrichment [16]
0.621 | 1.06 | 0.834 | AQVDTYCRHNF [HLA-DRB1_Y107_A103Q_YF] | 0.433 | 0.528 | 0.479 | 0.434 | 0.59 | 0.959 | 0.628 | 0.676 | 0.369 | 0.472 | 0.673 | 0.668 | 0.446
0.735 | 1.11 | 1.31 | GIVTGYLVLKE [DNMT3B_Y588_A585V] | 0.492 | 0.524 | 0.494 | 0.448 | 0.833 | 1.4 | 0.647 | 1.07 | 0.684 | 0.895 | 1.31 | 0.553 | 0.505
1.29 | 1.99 | 1.71 | FFLGKYLQEVL [KLB_Y910_YF] | 0.342 | 0.391 | 0.474 | 0.469 | 0.665 | 1.19 | 0.441 | 0.963 | 0.486 | 0.498 | 0.911 | 0.436 | 0.42
0.465 | 0.506 | 0.448 | RLLVVYPWTRR [HBB_Y36_Q40R] | 0.523 | 0.64 | 0.597 | 0.68 | 0.577 | 0.626 | 0.407 | 0.683 | 0.505 | 0.823 | 0.469 | 0.567 | 1.14
0.749 | 0.668 | 1.27 | RVFRDYVLKSA [HTATIP2_Y111_D108Y_YF] | 0.572 | 0.548 | 0.533 | 0.45 | 0.999 | 1.15 | 0.527 | 0.889 | 0.648 | 0.605 | 1.05 | 0.79 | 0.591
